This note sets out measurements from US20060252677A1 (published 2006).

In this test the target is T1, His-tag fused human PJ01087 protein (Protein-Y) (human, UniProt O95886 1-979).
T1 construct: Used as 1% Triton-X supernatant of E. coli; also called His-PJ01087; not shown: N-terminal His-tag and linker encoded by vector pDEST17
T1 sequence: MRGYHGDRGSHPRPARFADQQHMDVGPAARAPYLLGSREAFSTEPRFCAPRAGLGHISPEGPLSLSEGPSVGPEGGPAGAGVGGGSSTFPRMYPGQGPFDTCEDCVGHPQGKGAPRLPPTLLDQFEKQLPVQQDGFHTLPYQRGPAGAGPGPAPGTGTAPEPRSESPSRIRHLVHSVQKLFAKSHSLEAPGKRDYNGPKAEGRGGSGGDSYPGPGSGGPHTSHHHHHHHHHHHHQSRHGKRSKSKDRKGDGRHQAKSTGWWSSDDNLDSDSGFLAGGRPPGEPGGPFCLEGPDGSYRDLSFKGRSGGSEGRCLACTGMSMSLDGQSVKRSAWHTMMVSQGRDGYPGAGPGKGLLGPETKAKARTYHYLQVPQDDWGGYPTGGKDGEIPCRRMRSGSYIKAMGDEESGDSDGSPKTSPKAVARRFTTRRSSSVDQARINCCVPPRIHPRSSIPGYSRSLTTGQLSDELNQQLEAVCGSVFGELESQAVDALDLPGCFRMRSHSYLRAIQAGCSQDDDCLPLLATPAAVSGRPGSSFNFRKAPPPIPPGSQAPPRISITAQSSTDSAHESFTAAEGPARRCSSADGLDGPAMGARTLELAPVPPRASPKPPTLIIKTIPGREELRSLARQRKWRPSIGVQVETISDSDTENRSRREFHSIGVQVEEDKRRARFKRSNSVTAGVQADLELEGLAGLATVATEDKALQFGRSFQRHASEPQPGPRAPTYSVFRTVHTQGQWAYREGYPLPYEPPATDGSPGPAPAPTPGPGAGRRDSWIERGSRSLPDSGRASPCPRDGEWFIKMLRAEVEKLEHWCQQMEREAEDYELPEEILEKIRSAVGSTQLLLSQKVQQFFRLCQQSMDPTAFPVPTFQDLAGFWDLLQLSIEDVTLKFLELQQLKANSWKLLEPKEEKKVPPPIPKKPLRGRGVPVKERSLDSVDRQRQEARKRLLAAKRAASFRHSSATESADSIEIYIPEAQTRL
The test can be described thus: Immunoprecipitation with anti-GST antibody and Protein G-sepharose, Western blot with anti-His-tag antibody. As for the experimental part:
After adding 1 μl of anti-GST antibody (SIGMA) and agitating for 1 hour at 4° C., a further 30 μl of Protein G-sepharose was added thereto, and agitation proceeded for an additional 6 hours at 4° C. Thereafter, the supernatant was removed by centrifugation, and Protein G-sepharose was washed three times with 500 μl of 1% Triton-X/20 mM Tris (pH 7.4). After the washes, 30 μl of 2× sample buffer (2% SDS/50 mM Tris (pH 6.8)/30% glycerol/0.01% bromophenol blue) containing 2-mercaptoethanol was added to Protein G-sepharose and mixed. The samples were boiled for 2 minutes, subjected to electrophoresis on a 5%-20% polyacrylamide gel, and transferred onto a PVDF membrane. Then Western blotting was performed with anti-GST antibodies and anti-His-tag antibodies.
However, when Protein-Y (His-PJ01087) was reacted with Protein-X (GST-hj02537) or the Protein-X mutant (GST-hj (GK−)) to perform immunoprecipitation with an anti-GST antibody followed by detecting with an anti-His-tag antibody, no band showing Protein-Y was detected. Thus, no result showing that binding of Protein-Y to Protein-X exists could be obtained (lanes 5 or 6 in FIG. 23).

B1: GST fused novel PSD (Protein-X) (hj02537) (other, not shown: a dimerising Fc or GST)
chain: MPALSTGSGSDTGLYELLAALPAQLQPHVDSQEDLTFLWDMFGEKSLHSLVKIHEKLHYYEKQSPVPILHGAAALADDLAEELQNKPLNSEIRELLKLLSKPNVKALLSVHDTVAQKNYDPVLPPMPEDIDDEEDSVKIIRLVKNREPLGATIKKDEQTGAIIVARIMRGGAADRSGLIHVGDELREVNGIPVEDKRPEEIIQILAQSQGAITFKIIPGSKEETPSKEGKMFIKALFDYNPNEDKAIPCKEAGLSFKKGDILQIMSQDDATWWQAKHEADANPRAGLIPSKHFQERRLALRRPEILVQPLKVSNRKSSGFRRSFRLSRKDKKTNKSMYECKKSDQYDTADVPTYEEVTPYRRQTNEKYRLVVLVGPVGVGLNELKRKLLISDTQHYGVTVPHTTRARRSQESDGVEYIFISKHLFETDVQNNKFIEYGEYKNNYYGTSIDSVRSVLAKNKVCLLDVQPHTVKHLRTLEFKPYVIFIKPPSIERLRETRKNAKIISSRDDQGAAKPFTEEDFQEMIKSAQIMESQYGHLFDKIIINDDLTVAFNELKTTFDKLETETHWVPVSWLHS
notes: Crude 1% Triton-X E. coli supernatant used for immunoprecipitation; also called GST-hj02537
For the molecule B1, the binding result is reported as “no binding”.
